Data taken from the MegaScale stability set (Tsuboyama et al. 2023).

B1: HHH_rd2_0155 (parent)
chain: PPDDERKKAEKAARSGNEEKAREILERLGYSEDEARELAKRLR

Variants of: B1
Assay: folding stability dG (cDNA display proteolysis); higher = more stable
Settings: PBS, room temperature

Folding stability dG [kcal/mol], by site and new letter:
A21: E 0.697, K 0.641, Q 0.924, P 0.632, T 1.08, D 0.869, N 0.934, M 1.46, L 1.81, R 0.974, C 1.87, G 0.961, Y 1.52, I 1.68, F 1.63, H 0.916, V 1.27, S 1.23
E23: M 2.03, A 2.06, F 1.61, N 1.52, V 1.72, I 1.93, W 1.83, G 1.4, D 1.54, K 2.12, T 1.69, P 0.763, Y 1.68, H 1.85, C 2.35, S 1.73, R 2.21, L 2.19, Q 2.18
L25: N 0.253, D 0.2, A 0.215, F 2.35, M 0.884, W 1.64, G 0.372, T 0.034, I 0.435, Q 0.444, S 0.333, E 0.37, R 0.127, K -0.071, V 0.267, H -0.026, Y 1.87, P -0.039
L28: M 2.29, T 0.615, G 0.647, H 0.699, Y 0.983, P 0.261, D 0.418, V 0.87, R 0.697, A 1.54, W 1.47, C 1.85, N 0.822, Q 0.844, E 0.577, S 0.685, K 0.443, I 1.7, F 1.2
K20: D 1.33, P 0.917, T 1.77, H 1.73, E 2.11, W 1.98, V 2.05, G 1.66, M 2.19, Y 2.11, R 1.89, F 1.92, A 2.1, N 1.21, I 1.9, L 2.97, Q 1.86, S 1.61
S15: C 2.15, D 2.23, K 1.59, Y 1.55, Q 2.21, W 1.83, M 2.26, V 1.55, A 2.26, N 2.09, L 1.95, F 1.65, E 2.53, I 1.57, P 0.861, H 1.83, T 1.8, R 2.05, G 1.86
N17: A 1.4, W 1.98, F 1.9, Q 1.81, V 0.993, I 1.13, P 0.962, Y 1.71, L 1.65, G 1.08, D 2.42, S 1.4, M 1.61, T 0.954, H 1.77, E 1.71, K 1.42, R 1.46
A12: R 1.18, M 2.11, N 1.04, L 2.38, Q 1.69, W 2.4, V 1.49, K 1.01, S 1.34, Y 2.6, P 0.925, T 1.24
R14: W 1.77, I 1.84, N 1.3, M 1.96, A 1.78, S 1.44, F 1.6, G 1.04, K 2.08, Q 1.89, E 1.32, P 0.9, D 1.01, L 1.79, V 1.75, H 1.6, Y 1.73, T 1.41
G16: P 0.825, M 1.33, T 0.813, W 1.42, L 1.54, D 1.24, R 1.11, H 1.32, V 0.998, Y 1.47, F 1.53, A 1.15, S 1.22, N 1.23, E 0.965, K 1.22, Q 1.04, I 1.2
G29: E 0.491, L -0.221, S 0.474, V 0.455, F 0.708, A 0.3, M 0.484, Q 0.091, N 0.552, K 0.226, T 0.143, R 0.281, D 0.445, Y 0.196, P -0.509, H 0.665, W 0.361, I 0.244
Y30: F 1.94, K 0.407, A 0.811, G 0.222, I 1.06, M 1.74, Q 0.238, P 0.57, E 0.197, L 1.79, H 1.13, D 0.243
R22: M 1.88, Q 1.41, I 2.21, P 0.374, T 1.27, N 0.74, V 2.21, A 1.58, E 0.77, Y 1.33, F 1.09, D 0.179, H 0.903, L 1.4, W 1.13, G 0.568, S 1, K 1.44
R27: V 1.01, G 1.89, F 1.39, T 1.47, K 2.14, L 1.81, Y 1.41, Q 1.89, S 1.94, W 1.44, M 1.7, N 1.7, I 1.28, D 0.997, E 1.1, P 0.534, A 2.07, H 1.6
E18: A 1.57, P 1.23, H 1.44, G 1.19, K 0.82, F 2.24, Q 1.5, I 2.6, V 2.3, D 1.53, M 2.61, Y 2.25, S 1.37, W 2.32, T 1.8, L 2.8, N 1.17, R 0.996
E19: Y 1.79, G 1.6, P 1.61, V 1.95, H 1.7, K 2.18, W 1.94, R 2.16, S 1.9, C 2.27, L 2.15, N 1.81, T 2.05, D 2.03, I 2.05, M 2.22, A 2.3, F 1.91, Q 2.05
I24: Y 1.44, V 0.856, F 1.3, M 1.43, H 1.11, S 0.659, A 0.975, N 0.514, W 1.38, L 1.57, T 0.469, P 0.158, D 0.375, G 0.167, R 0.756, E 0.689, Q 0.718, K 0.671
A13: F 1.5, H 1, T 1.15, D 0.978, L 1.54, N 0.717, Q 0.906, I 1.46, Y 1.35, W 1.82, K 0.841, V 1.19, G 1.07, S 1.13, P 0.95, E 0.902, M 1.35, R 0.884
E26: K 2.41, W 0.866, F 1.47, A 1.73, S 1.72, V 2.61, D 0.509, L 2.56, G 1.5, T 1.93, R 2.65, N 1.22, M 3.05, I 2.65, Y 1.49, H 1.82, Q 2.39, P -0.06
